For 4 molecules, MIC against A. baumannii strain 649 in 25% human serum (no serum: 0.2), PA (self-association parameter) and MIC against A. baumannii strain 649 in 25% human serum (no serum: 0.4) results are on record in patent US20200129634A1.

Non-standard residues stand in square brackets, D forms with d. No end group written: not given here.

For one test, the target named is human serum proteins. In words: cell-based or functional assay.
The target in the next test is D34 (D38(A13K/A16K)). In words: RP-HPLC temperature profiling 5-77 C, pH 2, self-association (dimerization/oligomerization) relative to random coil control RC.
In the next test the target is D35 (D39(A13K/A16K)). Described as above.
Test [1] deals with D84 (D33(A1K)). In words: RP-HPLC temperature profiling (0.25% B/min gradient), Mix 1, self-association relative to RC.
Test [2] addresses D84 (D33(A1K)). In words: RP-HPLC temperature profiling (0.25% B/min gradient), Mix 2, self-association relative to RC.
Test [3] concerns the target D84 (D33(A1K)). As to the kind of experiment: RP-HPLC temperature profiling (0.25% B/min gradient), Mix 3, self-association relative to RC.
Test [4] has as its target D84 (D33(A1K)). As to the kind of experiment: RP-HPLC temperature profiling (0.25% B/min gradient), Mix 4, self-association relative to RC.
The target in the next test is D36 (D40(A13K/A16K)). As to the kind of experiment: RP-HPLC temperature profiling 5-77 C, pH 2, self-association (dimerization/oligomerization) relative to random coil control RC.

B1: D34 (D38(A13K/A16K)) (peptide)
peptide: [dA][dL][dK][dS][dL][dL][dK][dT][dL][dS][dA][dA][dK][dK][dK][dK][dL][dA][dT][dL][dL][dK][dA][dL][dS][dK]-NH2
modifications: N-terminus assumed
SMILES: CC(C)C[C@@H](NC(=O)[C@@H](C)N)C(=O)N[C@H](CCCCN)C(=O)N[C@H](CO)C(=O)N[C@H](CC(C)C)C(=O)N[C@H](CC(C)C)C(=O)N[C@H](CCCCN)C(=O)N[C@@H](C(=O)N[C@H](CC(C)C)C(=O)N[C@H](CO)C(=O)N[C@H](C)C(=O)N[C@H](C)C(=O)N[C@H](CCCCN)C(=O)N[C@H](CCCCN)C(=O)N[C@H](CCCCN)C(=O)N[C@H](CCCCN)C(=O)N[C@H](CC(C)C)C(=O)N[C@H](C)C(=O)N[C@@H](C(=O)N[C@H](CC(C)C)C(=O)N[C@H](CC(C)C)C(=O)N[C@H](CCCCN)C(=O)N[C@H](C)C(=O)N[C@H](CC(C)C)C(=O)N[C@H](CO)C(=O)N[C@H](CCCCN)C(N)=O)[C@H](C)O)[C@H](C)O
Molecule B1 had an MIC against A. baumannii strain 649 in 25% human serum (no serum: 0.2) in the test with human serum proteins of 1.4 µM. The same molecule had a PA (self-association parameter) in the test with D34 (D38(A13K/A16K)) of 5.7 min.

B2: D35 (D39(A13K/A16K)) (peptide)
peptide: [dA][dL][dK][dS][dL][dL][dA][dT][dL][dS][dK][dA][dK][dK][dK][dK][dL][dK][dT][dL][dL][dA][dA][dL][dS][dK]-NH2
modifications: N-terminus assumed
SMILES: CC(C)C[C@@H](NC(=O)[C@@H](C)N)C(=O)N[C@H](CCCCN)C(=O)N[C@H](CO)C(=O)N[C@H](CC(C)C)C(=O)N[C@H](CC(C)C)C(=O)N[C@H](C)C(=O)N[C@@H](C(=O)N[C@H](CC(C)C)C(=O)N[C@H](CO)C(=O)N[C@H](CCCCN)C(=O)N[C@H](C)C(=O)N[C@H](CCCCN)C(=O)N[C@H](CCCCN)C(=O)N[C@H](CCCCN)C(=O)N[C@H](CCCCN)C(=O)N[C@H](CC(C)C)C(=O)N[C@H](CCCCN)C(=O)N[C@@H](C(=O)N[C@H](CC(C)C)C(=O)N[C@H](CC(C)C)C(=O)N[C@H](C)C(=O)N[C@H](C)C(=O)N[C@H](CC(C)C)C(=O)N[C@H](CO)C(=O)N[C@H](CCCCN)C(N)=O)[C@H](C)O)[C@H](C)O
Molecule B2 registered an MIC against A. baumannii strain 649 in 25% human serum (no serum: 0.4) with human serum proteins of 1.4 µM. The PA (self-association parameter) in the test with D35 (D39(A13K/A16K)) was 5.5 min.

For the molecule Ac-KLKSLLKTLSKAKAAKLKTLLKALSK-NH2 (not fully specified; also: D-enantiomeric residues, extent not given here) [D84 (D33(A1K))], the PA (self-association parameter) with D84 (D33(A1K)) [1], with D84 (D33(A1K)) [2], with D84 (D33(A1K)) [3] and in the test with D84 (D33(A1K)) [4] was 6.8 min throughout.

B3: D36 (D40(A13K/A16K)) (peptide)
peptide: [dA][dL][dA][dS][dL][dL][dK][dT][dL][dS][dK][dA][dK][dK][dK][dK][dL][dK][dT][dL][dL][dK][dA][dL][dS][dA]-NH2
modifications: N-terminus assumed
SMILES: CC(C)C[C@@H](NC(=O)[C@@H](C)N)C(=O)N[C@H](C)C(=O)N[C@H](CO)C(=O)N[C@H](CC(C)C)C(=O)N[C@H](CC(C)C)C(=O)N[C@H](CCCCN)C(=O)N[C@@H](C(=O)N[C@H](CC(C)C)C(=O)N[C@H](CO)C(=O)N[C@H](CCCCN)C(=O)N[C@H](C)C(=O)N[C@H](CCCCN)C(=O)N[C@H](CCCCN)C(=O)N[C@H](CCCCN)C(=O)N[C@H](CCCCN)C(=O)N[C@H](CC(C)C)C(=O)N[C@H](CCCCN)C(=O)N[C@@H](C(=O)N[C@H](CC(C)C)C(=O)N[C@H](CC(C)C)C(=O)N[C@H](CCCCN)C(=O)N[C@H](C)C(=O)N[C@H](CC(C)C)C(=O)N[C@H](CO)C(=O)N[C@H](C)C(N)=O)[C@H](C)O)[C@H](C)O
In the test with human serum proteins, B3 had an MIC against A. baumannii strain 649 in 25% human serum (no serum: 0.4) of 0.7 µM. Further, in the test with D36 (D40(A13K/A16K)), the PA (self-association parameter) was determined as 5.6 min.
